Consider six molecules from publication PMC11381544 (Nature Communications, 2024).

The test system of assay [1] is P3H1 within the PCP complex. In words: 2-OG dependent oxygenase activity. Type of assay: biochemical, human. Particulars: Succinate-Glo assay, Fig. 1g, Fig. 3f, Supplementary Fig. 1f.
The next assay has as its system CRTAP and PPIB. In words: Co-purification / SDS-PAGE of PCP complex with P3H1 mutants. Type of assay: binding, human. The settings on record: co-expression with CRTAP and PPIB, Supplementary Fig. 1c.

B1: PCP-P3H1D589A: PCP complex with P3H1 active-site mutation D589A (protein)
chain: EVESEAGWGMVTPDLLFAEGTAAYARGDWPGVVLSMERALRSRAALRALRLRCRTQCAADFPWELDPDWSPSPAQASGAAALRDLSFFGGLLRRAACLRRCLGPPAAHSLSEEMELEFRKRSPYNYLQVAYFKINKLEKAVAAAHTFFVGNPEHMEMQQNLDYYQTMSGVKEADFKDLETQPHMQEFRLGVRLYSEEQPQEAVPHLEAALQEYFVAYEECRALCEGPYDYDGYNYLEYNADLFQAITDHYIQVLNCKQNCVTELASHPSREKPFEDFLPSHYNYLQFAYYNIGNYTQAVECAKTYLLFFPNDEVMNQNLAYYAAMLGEEHTRSIGPRESAKEYRQRSLLEKELLFFAYDVFGIPFVDPDSWTPEEVIPKRLQEKQKSERETAVRISQEIGNLMKEIETLVEEKTKESLDVSRLTREGGPLLYEGISLTMNSKLLNGSQRVVMDGVISDHECQELQRLTNVAATSGDGYRGQTSPHTPNEKFYGVTVFKALKLGQEGKVPLQSAHLYYNVTEKVRRIMESYFRLDTPLYFSYSHLVCRTAIEEVQAERKDDSHPVHVANCILNAETLVCVKEPPAYTFRDYSAILYLNGDFDGGNFYFTELDAKTVTAEVQPQCGRAVGFSSGTENPHGVKAVTRGQRCAIALWFTLDPRHSERDRVQADDLVKMLFSPEEMDLSQEQPLDAQQGPPEPAQESLSGSESKPKDEL
As to B1, the “2OG-Fe (II) oxygenase / P3H1 activity, in words” value in assay [1] is listed as “significantly decreased 2OG-dependent oxygenase activities”. For the same molecule, the “PCP complex formation of P3H1 active mutants” value (shortened to “PCP complex formation”) in the assay on CRTAP and PPIB is “could form PCP complex with CRTAP and PPIB”.

B2: P3H1/CRTAP: purified P3H1/CRTAP binary complex obtained when PPIB was excluded from co-transfection (protein)
chain 1: EVESEAGWGMVTPDLLFAEGTAAYARGDWPGVVLSMERALRSRAALRALRLRCRTQCAADFPWELDPDWSPSPAQASGAAALRDLSFFGGLLRRAACLRRCLGPPAAHSLSEEMELEFRKRSPYNYLQVAYFKINKLEKAVAAAHTFFVGNPEHMEMQQNLDYYQTMSGVKEADFKDLETQPHMQEFRLGVRLYSEEQPQEAVPHLEAALQEYFVAYEECRALCEGPYDYDGYNYLEYNADLFQAITDHYIQVLNCKQNCVTELASHPSREKPFEDFLPSHYNYLQFAYYNIGNYTQAVECAKTYLLFFPNDEVMNQNLAYYAAMLGEEHTRSIGPRESAKEYRQRSLLEKELLFFAYDVFGIPFVDPDSWTPEEVIPKRLQEKQKSERETAVRISQEIGNLMKEIETLVEEKTKESLDVSRLTREGGPLLYEGISLTMNSKLLNGSQRVVMDGVISDHECQELQRLTNVAATSGDGYRGQTSPHTPNEKFYGVTVFKALKLGQEGKVPLQSAHLYYNVTEKVRRIMESYFRLDTPLYFSYSHLVCRTAIEEVQAERKDDSHPVHVDNCILNAETLVCVKEPPAYTFRDYSAILYLNGDFDGGNFYFTELDAKTVTAEVQPQCGRAVGFSSGTENPHGVKAVTRGQRCAIALWFTLDPRHSERDRVQADDLVKMLFSPEEMDLSQEQPLDAQQGPPEPAQESLSGSESKPKDEL
chain 2: QYERYSFRSFPRDELMPLESAYRHALDKYSGEHWAESVGYLEISLRLHRLLRDSEAFCHRNCSAAPQPEPAAGLASYPELRLFGGLLRRAHCLKRCKQGLPAFRQSQPSREVLADFQRREPYKFLQFAYFKANNLPKAIAAAHTFLLKHPDDEMMKRNMAYYKSLPGAEDYIKDLETKSYESLFIRAVRAYNGENWRTSITDMELALPDFFKAFYECLAACEGSREIKDFKDFYLSIADHYVEVLECKIQCEENLTPVIGGYPVEKFVATMYHYLQFAYYKLNDLKNAAPCAVSYLLFDQNDKVMQQNLVYYQYHRDTWGLSDEHFQPRPEAVQFFNVTTLQKELYDFAKENIMDDDEGEVVEYVDDLLELEETS
modifications: left off: twin Strep tag, C-terminal, kept
Consider B2, for which the “2OG-Fe (II) oxygenase / P3H1 activity, in words” value in assay [1] is listed as “elevated P3H1 activities”.

B3: PCP-P3H1W675L: PCP complex with OI-related P3H1 mutation W675L near the active site (protein)
chain: EVESEAGWGMVTPDLLFAEGTAAYARGDWPGVVLSMERALRSRAALRALRLRCRTQCAADFPWELDPDWSPSPAQASGAAALRDLSFFGGLLRRAACLRRCLGPPAAHSLSEEMELEFRKRSPYNYLQVAYFKINKLEKAVAAAHTFFVGNPEHMEMQQNLDYYQTMSGVKEADFKDLETQPHMQEFRLGVRLYSEEQPQEAVPHLEAALQEYFVAYEECRALCEGPYDYDGYNYLEYNADLFQAITDHYIQVLNCKQNCVTELASHPSREKPFEDFLPSHYNYLQFAYYNIGNYTQAVECAKTYLLFFPNDEVMNQNLAYYAAMLGEEHTRSIGPRESAKEYRQRSLLEKELLFFAYDVFGIPFVDPDSWTPEEVIPKRLQEKQKSERETAVRISQEIGNLMKEIETLVEEKTKESLDVSRLTREGGPLLYEGISLTMNSKLLNGSQRVVMDGVISDHECQELQRLTNVAATSGDGYRGQTSPHTPNEKFYGVTVFKALKLGQEGKVPLQSAHLYYNVTEKVRRIMESYFRLDTPLYFSYSHLVCRTAIEEVQAERKDDSHPVHVDNCILNAETLVCVKEPPAYTFRDYSAILYLNGDFDGGNFYFTELDAKTVTAEVQPQCGRAVGFSSGTENPHGVKAVTRGQRCAIALLFTLDPRHSERDRVQADDLVKMLFSPEEMDLSQEQPLDAQQGPPEPAQESLSGSESKPKDEL
As for B3, in assay [1] (listed as W675L^P3H1), the “2OG-Fe (II) oxygenase / P3H1 activity, in words” value is reported as “reduced enzymatic activities”.

B4: PCP-P3H1H659A: PCP complex with P3H1 active-site mutation H659A (protein)
chain: EVESEAGWGMVTPDLLFAEGTAAYARGDWPGVVLSMERALRSRAALRALRLRCRTQCAADFPWELDPDWSPSPAQASGAAALRDLSFFGGLLRRAACLRRCLGPPAAHSLSEEMELEFRKRSPYNYLQVAYFKINKLEKAVAAAHTFFVGNPEHMEMQQNLDYYQTMSGVKEADFKDLETQPHMQEFRLGVRLYSEEQPQEAVPHLEAALQEYFVAYEECRALCEGPYDYDGYNYLEYNADLFQAITDHYIQVLNCKQNCVTELASHPSREKPFEDFLPSHYNYLQFAYYNIGNYTQAVECAKTYLLFFPNDEVMNQNLAYYAAMLGEEHTRSIGPRESAKEYRQRSLLEKELLFFAYDVFGIPFVDPDSWTPEEVIPKRLQEKQKSERETAVRISQEIGNLMKEIETLVEEKTKESLDVSRLTREGGPLLYEGISLTMNSKLLNGSQRVVMDGVISDHECQELQRLTNVAATSGDGYRGQTSPHTPNEKFYGVTVFKALKLGQEGKVPLQSAHLYYNVTEKVRRIMESYFRLDTPLYFSYSHLVCRTAIEEVQAERKDDSHPVHVDNCILNAETLVCVKEPPAYTFRDYSAILYLNGDFDGGNFYFTELDAKTVTAEVQPQCGRAVGFSSGTENPAGVKAVTRGQRCAIALWFTLDPRHSERDRVQADDLVKMLFSPEEMDLSQEQPLDAQQGPPEPAQESLSGSESKPKDEL
Take B4: in assay [1], the “2OG-Fe (II) oxygenase / P3H1 activity, in words” value is recorded as “significantly decreased 2OG-dependent oxygenase activities”. The “PCP complex formation” value in the assay on CRTAP and PPIB is “could form PCP complex with CRTAP and PPIB”.

B5: PCP-P3H1H587A: PCP complex with P3H1 active-site mutation H587A (protein)
chain: EVESEAGWGMVTPDLLFAEGTAAYARGDWPGVVLSMERALRSRAALRALRLRCRTQCAADFPWELDPDWSPSPAQASGAAALRDLSFFGGLLRRAACLRRCLGPPAAHSLSEEMELEFRKRSPYNYLQVAYFKINKLEKAVAAAHTFFVGNPEHMEMQQNLDYYQTMSGVKEADFKDLETQPHMQEFRLGVRLYSEEQPQEAVPHLEAALQEYFVAYEECRALCEGPYDYDGYNYLEYNADLFQAITDHYIQVLNCKQNCVTELASHPSREKPFEDFLPSHYNYLQFAYYNIGNYTQAVECAKTYLLFFPNDEVMNQNLAYYAAMLGEEHTRSIGPRESAKEYRQRSLLEKELLFFAYDVFGIPFVDPDSWTPEEVIPKRLQEKQKSERETAVRISQEIGNLMKEIETLVEEKTKESLDVSRLTREGGPLLYEGISLTMNSKLLNGSQRVVMDGVISDHECQELQRLTNVAATSGDGYRGQTSPHTPNEKFYGVTVFKALKLGQEGKVPLQSAHLYYNVTEKVRRIMESYFRLDTPLYFSYSHLVCRTAIEEVQAERKDDSHPVAVDNCILNAETLVCVKEPPAYTFRDYSAILYLNGDFDGGNFYFTELDAKTVTAEVQPQCGRAVGFSSGTENPHGVKAVTRGQRCAIALWFTLDPRHSERDRVQADDLVKMLFSPEEMDLSQEQPLDAQQGPPEPAQESLSGSESKPKDEL
For B5, the “2OG-Fe (II) oxygenase / P3H1 activity, in words” value in assay [1] is reported as “significantly decreased 2OG-dependent oxygenase activities”. The “PCP complex formation” value in the assay with CRTAP and PPIB is “could form PCP complex with CRTAP and PPIB”.

B6: PCP-P3H1R669A: PCP complex with P3H1 active-site mutation R669A (protein)
chain: EVESEAGWGMVTPDLLFAEGTAAYARGDWPGVVLSMERALRSRAALRALRLRCRTQCAADFPWELDPDWSPSPAQASGAAALRDLSFFGGLLRRAACLRRCLGPPAAHSLSEEMELEFRKRSPYNYLQVAYFKINKLEKAVAAAHTFFVGNPEHMEMQQNLDYYQTMSGVKEADFKDLETQPHMQEFRLGVRLYSEEQPQEAVPHLEAALQEYFVAYEECRALCEGPYDYDGYNYLEYNADLFQAITDHYIQVLNCKQNCVTELASHPSREKPFEDFLPSHYNYLQFAYYNIGNYTQAVECAKTYLLFFPNDEVMNQNLAYYAAMLGEEHTRSIGPRESAKEYRQRSLLEKELLFFAYDVFGIPFVDPDSWTPEEVIPKRLQEKQKSERETAVRISQEIGNLMKEIETLVEEKTKESLDVSRLTREGGPLLYEGISLTMNSKLLNGSQRVVMDGVISDHECQELQRLTNVAATSGDGYRGQTSPHTPNEKFYGVTVFKALKLGQEGKVPLQSAHLYYNVTEKVRRIMESYFRLDTPLYFSYSHLVCRTAIEEVQAERKDDSHPVHVDNCILNAETLVCVKEPPAYTFRDYSAILYLNGDFDGGNFYFTELDAKTVTAEVQPQCGRAVGFSSGTENPHGVKAVTRGQACAIALWFTLDPRHSERDRVQADDLVKMLFSPEEMDLSQEQPLDAQQGPPEPAQESLSGSESKPKDEL
B6: the “2OG-Fe (II) oxygenase / P3H1 activity, in words” value in assay [1] is “significantly decreased 2OG-dependent oxygenase activities”. The “PCP complex formation” value in the assay with CRTAP and PPIB is “could form PCP complex with CRTAP and PPIB”.
